Assay results from US20250019450A1 (DIAGONAL THERAPEUTICS, published 2025).

B1: DGL594 (bispecific antibody, V domains shown)
V domain 1: EVQLVESGGGLVQAGGSLRLSCAASGSKFSFNAMGWYRQTPGKQRELVAIIINGDMINYADSVKGRFTISRDNAKNTMYLQMNSLKPEDTAVYYCKMTRYVYDYWGQGTQVTVEP
V domain 2: QVQLVESGGGLVQPGGSLRLSCAASGFTFSSKAMHWFRQAPGKGLEWVSSINSGGAITYYKDSVKGRFTVSRDNAKNILYLEMNSLKPEDTALYYCATDTDGRTRGQGTQVTVEP
B2: DGL497 (bispecific antibody, V domains shown)
V domain 1: EVQLVESGGGLVQAGGSLRLSCAASGLTFRNYAMAWFRQAPGKEREFVAGITWGGGLTHYVDSVKGRFTISRDNGKNTVYLQMNSLKSEDTAVYYCAGKTQGSTWYHLTPDGYDYWGQGTQVTVEP
V domain 2: QVQLVESGGGLVQPGGSLRLSCAASGFTFSNYAMSWIRQGPERGFEWVSRINSGGGTTSYADSVKGRFTISRDNAKNTLYLQMNSLKPEDTAVYYCAKHSHPDYSSNYYRPGQGTQVTVEP
B3: DGL587 (bispecific antibody, V domains shown)
V domain 1: QVQLVESGGGLVQAGGSLRLSCAASGRTFSSYVMGWFRQAPGQEREFVAAIMRNGIMTYYADSVKGRFTISRDNAKNTVYLQMNTLKPDDTAVYYCAAASRVGVSISQSSSYTSWGQGTQVTVEP
V domain 2: QVQLVESGGGLVQPGGSLRLSCAASGFTFSSKAMHWFRQAPGKGLEWVSSINSGGAITYYKDSVKGRFTVSRDNAKNILYLEMNSLKPEDTALYYCATDTDGRTRGQGTQVTVEP
B4: DGL603 (bispecific antibody, V domains shown)
V domain 1: EVQLVESGGGLVQPGGSLRLSCAASGFTFQNYAMSWLRKAPGEGLEWVSVINSGGGSTLYADSVKGRFTISRDNAKNTLYLQMHSLKSEDTAVYFCAKRRDDSTFGSLLYTHRGQGTQVTVEP
V domain 2: QVQLVESGGGLVQPGGSLRLSCAASGFTFSNYAMSWVRQAPGKGLEWVSAINSDGTSTSYADSVKGQFTISRDNAKNTLYLQMNSLKPEDTAVYYCTKWEGDTDSDYKFKDYWGQGTQVTVEP
B5: DGL506 (bispecific antibody, V domains shown)
V domain 1: EVQLVESGGGLVQAGGSLRLSCAASGLTFRNYAMAWFRQAPGKEREFVAGITWGGGLTHYVDSVKGRFTISRDNGKNTVYLQMNSLKSEDTAVYYCAGKTQGSTWYHLTPDGYDYWGQGTQVTVEP
V domain 2: QVQLVESGGGLVQAGGSLKLSCAASGGTFSSYAMGWFRQAPGKEREFVAAIMRSGGTTVYVNSVKGRFTVSRDNAKNTVYLQMNSLKPEDAAVYYCAAGRPVSRTSYYTYTYPHDYDYWGQGTQVSVEP
B6: DGL461 (bispecific antibody, V domains shown)
V domain 1: EVQLVESGGGLVQPGGSLRLSCAASGFTFQNYAMSWLRKAPGEGLEWVSVINSGGGSTLYADSVKGRFTISRDNAKNTLYLQMHSLKSEDTAVYFCAKRRDDSTFGSLLYTHRGQGTQVTVEP
V domain 2: QVQLVESGGGLVQPGGSLRLSCAASGFTFEPYDMSWFRQAPGKGPEWVSAIDKGGGAGATYYADSVKGRFTISRDNAKKTLYLQMKSLKPEDTAVYYCAITAGPYSDSTPRVAYRGEGTQVTVEP
B7: DGL413 (bispecific antibody, human IgG1, kappa)
heavy 1: not shown
heavy 2: QVQLVESGGGLVQAGGSLRLSCAASGRTFSRYRMGWFRQAPGKEREFVAAITKSGATTYDADSVKGRFTISRDNAKNTLYLQMNSLKPEDTAVYYCAASYHSNWWPKNADEYAYWGQGTQVTVEPKSSDKTHTCPPCPAPEAAGAPSVFLFPPKPKDTLMISRTPEVTCVVVDVSHEDPEVKFNWYVDGVEVHNAKTKPREEQYNSTYRVVSVLTVLHQDWLNGKEYKCKVSNKALPAPIEKTISKAKGQPREPQVCTLPPSRDELTKNQVSLSCAVKGFYPSDIAVEWESNGQPENNYKTTPPVLDSDGSFFLVSKLTVDKSRWQQGNVFSCSVMHEALHNRFTQKSLSLSPG
light: DIQMTQSPSSLSASVGDRVTITCRASQGIGNYLAWFQQRPGKAPKSLIYAASSLQSGVPSKFSGSGSGTDFTLTISSLQPADFAIYYCQQYNIYPYTFGPGTRLEIKRTVAAPSVFIFPPSDEQLKSGTASVVCLLNNFYPREAKVQWKVDNALQSGNSQESVTEQDSKDSTYSLSSTLTLSKADYEKHKVYACEVTHQGLSSPVTKSFNRGEC
B8: DGL479 (bispecific antibody, V domains shown)
V domain 1: QVQLVESGGGLVQAGGSLRLSCAAPGRYAVGWFRQAPGKEYEFVAAITVSGGSKYYEDSVKGRFAISRDNAKNTVYLQMNSLKAEDTAVYYCAARTPKFGSGWYNRRGEYDYWGQGTQVTVEP
V domain 2: QVQLVESGGGLVQAGGSLRLSCAASGRTFSSYAMGWFRQAPGKEREFVSAISWSGLSTYYVESVQGRFTISRDNAKNTVYLQMNSLKPEDTAVYYCAASRIYTNYVARSYEYDDWGQGTQVTVEP
B9: DGL397 (bispecific antibody, human IgG1, kappa)
heavy 1: not shown
heavy 2: QVQLVESGGGLVQAGGSLRLSCAASGRIFSAYRMGWFRQAPGKEREFVAGITWRGQTTYYAASVKGRFTISKDNAKKTVYLQMNSLKPEETAVYYCAVETNGLGRWDRPSEYDYWGQGTQVTVEPKSSDKTHTCPPCPAPEAAGAPSVFLFPPKPKDTLMISRTPEVTCVVVDVSHEDPEVKFNWYVDGVEVHNAKTKPREEQYNSTYRVVSVLTVLHQDWLNGKEYKCKVSNKALPAPIEKTISKAKGQPREPQVCTLPPSRDELTKNQVSLSCAVKGFYPSDIAVEWESNGQPENNYKTTPPVLDSDGSFFLVSKLTVDKSRWQQGNVFSCSVMHEALHNRFTQKSLSLSPG
light: DIQLTQSPSFLSASVGDRVTITCRASQGISSYLAWYQQQPGKPPKLLIYAASTLHSGVPSRFSGSGSGTEFTLTISSLQPEDFATYYCQQLNRYPYTCGQGTKLEIKRTVAAPSVFIFPPSDEQLKSGTASVVCLLNNFYPREAKVQWKVDNALQSGNSQESVTEQDSKDSTYSLSSTLTLSKADYEKHKVYACEVTHQGLSSPVTKSFNRGEC
B10: DGL508 (bispecific antibody, V domains shown)
V domain 1: EVQLVESGGGLVQAGGSLRLSCAASGLTFRNYAMAWFRQAPGKEREFVAGITWGGGLTHYVDSVKGRFTISRDNGKNTVYLQMNSLKSEDTAVYYCAGKTQGSTWYHLTPDGYDYWGQGTQVTVEP
V domain 2: QVQLVESGGGLVQAGGSLRLSCAASGRTFSRYIMGWFRQATGKEREFVAAISWSGLSTHYADSVQGRFTISRDNAENTVYLQMNSLKPEDTAVYYCAADRHWETRLLPREYDYWGQGTQVTVEP
B11: DGL518 (bispecific antibody, V domains shown)
V domain 1: EVQLVESGGGLVQPGGSLRLFCAASRSIFNINIMGWYRQAPGKQREWLASITSGGSTFYADSVKDRFTISRDSVKNTVYLQMNSLKPEDTAAYYCNRYRSVPLNTVYPWGQGTLVTVEP
V domain 2: QVQLVESGGGLVRPGGSLRLSCAASGFTFSSNGMHWFRQAPGKGLEWVSSIGSGGTSIYYADSVKGRFTISRDNAKNTLYLQMNSLKSDDTAVYYCSKEVTGATRGQGTQVTVEP
B12: DGL496 (bispecific antibody, V domains shown)
V domain 1: EVQLVESGGGLVQAGGSLRLSCAASGLTFRNYAMAWFRQAPGKEREFVAGITWGGGLTHYVDSVKGRFTISRDNGKNTVYLQMNSLKSEDTAVYYCAGKTQGSTWYHLTPDGYDYWGQGTQVTVEP
V domain 2: QVQLVESGGGLVQPGGSLRLSCAASGFTFSSKAMHWFRQAPGKGLEWVSSINSGGAITYYKDSVKGRFTVSRDNAKNILYLEMNSLKPEDTALYYCATDTDGRTRGQGTQVTVEP
B13: DGL395 (bispecific antibody, human IgG1, kappa)
heavy 1: not shown
heavy 2: QVQLVESGGGLVQAGGSLRLSCAASGRTFSSYAMGWFRQAPGKEREFVSAISWSGLSTYYVESVQGRFTISRDNAKNTVYLQMNSLKPEDTAVYYCAASRIYTNYVARSYEYDDWGQGTQVTVEPKSSDKTHTCPPCPAPEAAGAPSVFLFPPKPKDTLMISRTPEVTCVVVDVSHEDPEVKFNWYVDGVEVHNAKTKPREEQYNSTYRVVSVLTVLHQDWLNGKEYKCKVSNKALPAPIEKTISKAKGQPREPQVCTLPPSRDELTKNQVSLSCAVKGFYPSDIAVEWESNGQPENNYKTTPPVLDSDGSFFLVSKLTVDKSRWQQGNVFSCSVMHEALHNRFTQKSLSLSPG
light: DIQLTQSPSFLSASVGDRVTITCRASQGISSFLAWYQQKPGKAPKLLIYAASTLQSGVPSRFSGSGSGTEFTLTISSLQPEDFATYYCQQLNGYPFTFGPGTKVDIKRTVAAPSVFIFPPSDEQLKSGTASVVCLLNNFYPREAKVQWKVDNALQSGNSQESVTEQDSKDSTYSLSSTLTLSKADYEKHKVYACEVTHQGLSSPVTKSFNRGEC
B14: DGL405 (bispecific antibody, human IgG1, kappa)
heavy 1: not shown
heavy 2: QVQLVESGGGLVQAGGSLRLSCAASGRIFSAYRMGWFRQAPGKEREFVAGITWRGQTTYYAASVKGRFTISKDNAKKTVYLQMNSLKPEETAVYYCAVETNGLGRWDRPSEYDYWGQGTQVTVEPKSSDKTHTCPPCPAPEAAGAPSVFLFPPKPKDTLMISRTPEVTCVVVDVSHEDPEVKFNWYVDGVEVHNAKTKPREEQYNSTYRVVSVLTVLHQDWLNGKEYKCKVSNKALPAPIEKTISKAKGQPREPQVCTLPPSRDELTKNQVSLSCAVKGFYPSDIAVEWESNGQPENNYKTTPPVLDSDGSFFLVSKLTVDKSRWQQGNVFSCSVMHEALHNRFTQKSLSLSPG
light: DIQLTQSPSFLSASVGYRVTITCRASQGISSYLAWYQQKPGKAPQLLIYAASTLQSGVPSRFSGRGSGTEFTLTISSLQPEDFATYYCQQLNGYPFTFGPGTKVNIKRTVAAPSVFIFPPSDEQLKSGTASVVCLLNNFYPREAKVQWKVDNALQSGNSQESVTEQDSKDSTYSLSSTLTLSKADYEKHKVYACEVTHQGLSSPVTKSFNRGEC
B15: DGL505 (bispecific antibody, V domains shown)
V domain 1: EVQLVESGGGLVQAGGSLRLSCAASGLTFRNYAMAWFRQAPGKEREFVAGITWGGGLTHYVDSVKGRFTISRDNGKNTVYLQMNSLKSEDTAVYYCAGKTQGSTWYHLTPDGYDYWGQGTQVTVEP
V domain 2: QVQLVESGGGLVQLGDSLRLSCAASGRGFSSWTMAWFRQALGKRREFVAAITATGARTSSAESEGRFTISRDNAKNMVFLQMNSLKAEDTAVYYCAATGIASWDPGMADKYTYWGQGTQVTVEP
B16: DGL490 (bispecific antibody, V domains shown)
V domain 1: QVQLVESGGGLVQAGGSLRLSCAASARIFNSYAVAWFRQTPGKEREFVASISWSGGSTNYADSVKGRFTISRDNAKNTVFLQMNSLKPADTAVYYCAADRNYYPSVLGKYTYWGQGTQVTVEP
V domain 2: QVQLVESGGGLVQAGGSLRLSCAASGRTFSSYAMGWFRQAPGKEREFVSAISWSGLSTYYVESVQGRFTISRDNAKNTVYLQMNSLKPEDTAVYYCAASRIYTNYVARSYEYDDWGQGTQVTVEP

Target: human IL-12 receptor (IL-12Rβ1 and IL-12Rβ2) on HEK-Blue IL-12 cells (human, UniProt P42701 24-662; Q99665 24-862)
Sequence (Q99665 24-862, chain 2 of 2, other chains not shown): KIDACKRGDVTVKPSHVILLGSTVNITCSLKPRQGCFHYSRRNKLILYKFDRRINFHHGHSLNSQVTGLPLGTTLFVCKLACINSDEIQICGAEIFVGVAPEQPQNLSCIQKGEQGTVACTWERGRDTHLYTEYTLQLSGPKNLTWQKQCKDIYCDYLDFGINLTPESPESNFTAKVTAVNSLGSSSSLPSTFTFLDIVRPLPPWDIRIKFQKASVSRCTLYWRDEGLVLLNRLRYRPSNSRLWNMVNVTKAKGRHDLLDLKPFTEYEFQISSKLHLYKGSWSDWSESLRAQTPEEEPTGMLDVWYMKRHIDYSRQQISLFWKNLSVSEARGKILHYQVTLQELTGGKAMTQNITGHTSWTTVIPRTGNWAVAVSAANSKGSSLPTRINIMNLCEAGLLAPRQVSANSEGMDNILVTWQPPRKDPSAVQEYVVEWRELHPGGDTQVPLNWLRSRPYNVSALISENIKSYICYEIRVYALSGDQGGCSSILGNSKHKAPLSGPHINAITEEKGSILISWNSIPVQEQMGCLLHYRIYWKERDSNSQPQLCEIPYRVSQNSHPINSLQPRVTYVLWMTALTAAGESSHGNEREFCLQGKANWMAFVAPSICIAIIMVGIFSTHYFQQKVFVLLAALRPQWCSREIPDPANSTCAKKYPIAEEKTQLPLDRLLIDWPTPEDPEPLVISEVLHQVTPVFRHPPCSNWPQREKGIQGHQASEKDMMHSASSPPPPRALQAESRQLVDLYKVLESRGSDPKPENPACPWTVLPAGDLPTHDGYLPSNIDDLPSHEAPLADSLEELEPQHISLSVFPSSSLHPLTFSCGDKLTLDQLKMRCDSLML
Assay: cell-based or functional assay

**Q.** How did the “Max Absorbance” value turn out when B1 was run?
**A.** 0.33

**Q.** B2 was tested. Which “Max Absorbance” value did it give?
**A.** 0.32

**Q.** With B3 as the binder, how does the “Max Absorbance” value read?
**A.** 0.32

**Q.** For B4, which “Max Absorbance” value is on record?
**A.** 0.31

**Q.** Which “Max Absorbance” value does the source give for B5 here?
**A.** 0.31

**Q.** For B6, which “Max Absorbance” value is on record?
**A.** 0.31

**Q.** Which “Max Absorbance” value does the source give for B7 here?
**A.** 0.29

**Q.** How did the “Max Absorbance” value turn out when B8 was run?
**A.** 0.29

**Q.** For B9, which EC50 is on record?
**A.** 1.6e-11 M (implied)

**Q.** What about the “Max Absorbance” value of the same binder?
**A.** 0.28

**Q.** B10 was tested. Which “Max Absorbance” value did it give?
**A.** 0.28

**Q.** With B11 as the binder, how does the “Max Absorbance” value read?
**A.** 0.27

**Q.** Which “Max Absorbance” value does the source give for B12 here?
**A.** 0.27

**Q.** With B13 as the binder, how does the EC50 read?
**A.** 2.3e-10 M (implied)

**Q.** And the “Max Absorbance” value?
**A.** 0.26

**Q.** B14 was tested. Which “Max Absorbance” value did it give?
**A.** 0.26

**Q.** How did the “Max Absorbance” value turn out when B15 was run?
**A.** 0.26

**Q.** With B16 as the binder, how does the “Max Absorbance” value read?
**A.** 0.25
